This is an account of results in article PMC1450327, “Crystal Structure of the HSV-1 Fc Receptor Bound to Fc Reveals a Mechanism for Antibody Bipolar Bridging” (PLoS Biology, 2006).

The term Kd denotes the equilibrium constant for the complex coming apart.

For this experiment, the target named is T1, wild-type Fc (wtFc), recombinant Fc fragment of human IgG1 (human).
T1 construct: human IgG1 heavy chain constant region, Fc fragment, residues 223-447; also called IgG Fc
Nature of the experiment: SPR; BIAcore 2000; wtFc amine-coupled to a CM5 chip (440 RU); CgE injected, three-fold dilutions from 30 μM to 5 nM; pH 8 (50 mM HEPES pH 8.0, 150 mM NaCl, 3 mM EDTA, 0.005% P-20); equilibrium response fitted to a single-site model. The settings on record: both partners purified. Background: In SPR one partner is held on a chip, and binding of the other changes the refractive index at the surface.

B1: C-terminal domain of the gE ectodomain (CgE), HSV-1 gE residues 213-390 (domain or fragment)
chain: APEVSHVRGVTVRMETPEAILFSPGETFSTNVSIHAIAHDDQTYSMDVVWLRFDVPTSCAEMRIYESCLYHPQLPECLSPADAPCAASTWTSRLAVRSYAGCSRTNPPPRCSAEAHMEPVPGLAWQAASVNLEFRDASPQHSGLYLCVVYVNDHIHAWGHITISTAAQYRNAVVEQPL
modifications: secreted from High 5 insect cells; disulfides Cys271-Cys297, Cys280-Cys289 and Cys314-Cys323 (gE numbering = entity position + 211); C-terminal Factor Xa site and 6xHis left out
For the molecule B1, the Kd was roughly 7 µM.
